Numbering of substitutions follows the chain as printed.

Data on 12 molecules can be found in patent publication US11278600B2, “Human alpha-galactosidase variants” (Codexis, Inc., priority 2014, dated 2022).

B1: 3 (protein)
chain: LDNGLARTPTMGWLHWERFMCNLDCQEEPDSCISEKLFMEMADLMVSDGWKDAGYEYLCIDDCWMAPQRDSEGRLQADPQRFPHGIRQLANYVHSKGLKLGIYADVGNKTCAGFPGSFGYYDIDAQTFADWGVDLLKFDGCYCDSLENLADGYKHMSLALNRTGRSIVYSCEWPLYMWPFQKPNYTEIRQYCNHWRNFADIDDSWKSIKSILDWTSFNQERIVDVAGPGGWNDPDMLVIGNFGLSWNQQVTQMALWAIMAAPLFMSNDLRHISPQAKALLQDKDVIAINQDPLGKQGYQLRQGDNFEVWERPLSGLAWAVAMINRQEIGGPRSYTIAVASLGKGVACNPACFITQLLPVKRKLGFYEWTSRLRSHINPTGTVLLQLENTMQMSLKDLL
modifications: Synthetic Polypeptide sequence of Variant No. 3 of mature Human GLA
B2: 14 (protein)
chain: B1 chain with D48E, R373K, I376V
modifications: Synthetic Polypeptide sequence of Variant No. 14 of mature Human GLA
B3: 4 (protein)
chain: B1 chain with I208V, N247D, Q299R, Q302K, R373K, I376V
modifications: Synthetic Polypeptide sequence of Variant No. 4 of mature Human GLA
B4: 9 (protein)
chain: B1 chain with Q302K, R373K, I376V
modifications: Synthetic Polypeptide sequence of Variant No. 9 of mature Human GLA
B5: 6 (protein)
chain: B1 chain with I208V, R373K, I376V
modifications: Synthetic Polypeptide sequence of Variant No. 6 of mature Human GLA
B6: 10 (protein)
chain: B1 chain with D48E, I208V, N247D
modifications: Synthetic Polypeptide sequence of Variant No. 10 of mature Human GLA
B7: 13 (protein)
chain: B1 chain with D48E, N247D, R373K, I376V
modifications: Synthetic Polypeptide sequence of Variant No. 13 of mature Human GLA
B8: 5 (protein)
chain: B1 chain with I208V, R373K
modifications: Synthetic Polypeptide sequence of Variant No. 5 of mature Human GLA
B9: 11 (protein)
chain: B1 chain with D48E, I208V, N247D, Q299R, R373K, I376V
modifications: Synthetic Polypeptide sequence of Variant No. 11 of mature Human GLA
B10: 12 (protein)
chain: B1 chain with D48E, I208V, Q299R, R373K, I376V
modifications: Synthetic Polypeptide sequence of Variant No. 12 of mature Human GLA
B11: 8 (protein)
chain: B1 chain with N247D, Q302K, R373K
modifications: Synthetic Polypeptide sequence of Variant No. 8 of mature Human GLA
B12: 7 (protein)
chain: B1 chain with N247D, Q299R, Q302K, R373K, I376V
modifications: Synthetic Polypeptide sequence of Variant No. 7 of mature Human GLA

A short description of one data set: HTP-analysis of supernatants pretreated with acid (MUGal hydrolysis). It counts as biochemical. The settings on record: challenge at pH 4.3; activity of the variant/activity of WT GLA (SEQ ID NO: 5); yeast supernatant. The protocol: (§1) Yeast (INVSc1) cells transformed with vectors expressing GLA and GLA variants using the lithium acetate method were selected on SD-Ura agar plates. After 72 h incubation at 30° C. colonies were placed into the wells of Axygen® 1.1 ml 96-well deep well plates filled with 200 μl/well SD-Ura broth (2 g/L SD-Ura, 6.8 g/L yeast nitrogen base without amino acids [Sigma Aldrich]), 3.06 g/L sodium dihydrogen phosphate, 0.804 g/L disodium hydrogen phosphate, pH 6.0 supplemented with 6% glucose. The cells were allowed to grow for 20-24 hours in a Kuhner shaker (250 rpm, 30° C., and 85% relative humidity). Overnight culture samples (20 μL) were transferred into Corning Costar® 96-well deep plates filled with 380 µL of SD-ura broth supplemented with 2% glucose. The plates were incubated for 66-84 h in a Kuhner shaker (250 rpm, 30° C., and 85% relative humidity). The cells were then pelleted (4000 rpm×20 min), and the supernatants isolated and stored at 4° C. prior to analysis.
GLA variants were challenged with acidic buffer to simulate the extreme pHs that the variants may encounter in lysosomes. First, 50 μL of yeast culture supernatant and 50 uL of McIlvaine buffer (pH 3.3-4.3) were added to the wells of a 96-well round bottom plate. The plates were sealed with a PlateLoc Thermal Microplate Sealer (Agilent) and incubated at 37° C. for 1-3 h. For the assay, 10-50 uL of acid-pH-challenged sample was mixed with 0-40 μL, of McIlvaine buffer pH 4.8, 25 μL, of 1 M citrate buffer pH 4.3 and 25 μL, of 4 mM MUGal in McIlvaine buffer pH 4.8. The reactions were mixed briefly and incubated at 37° C. for 30-180 minutes, prior to quenching with 100 μL, of 1 M sodium carbonate. Hydrolysis was analyzed using a SpectraMax® M2 microplate reader monitoring fluorescence (Ex. 355 nm, Em. 448 nm).
On to B1, for which the “Relative Activity of GLA Variants After Challenge at pH 4.3” value (“Relative Activity … at pH 4.3” for short) is “+ (+ = 0.5 to 1.5 relative activity over WT GLA (SEQ ID NO: 5))”.

With B2, the “Relative Activity … at pH 4.3” value is reported as “+++ (+++ = >2.5 relative activity over WT GLA (SEQ ID NO: 5))”.

As to B3, the “Relative Activity … at pH 4.3” value was “+++ (+++ = >2.5 relative activity over WT GLA (SEQ ID NO: 5))”.

B4: the “Relative Activity … at pH 4.3” value is “+++ (+++ = >2.5 relative activity over WT GLA (SEQ ID NO: 5))”.

As for B5, the “Relative Activity … at pH 4.3” value is listed as “+++ (+++ = >2.5 relative activity over WT GLA (SEQ ID NO: 5))”.

Take B6: the “Relative Activity … at pH 4.3” value is “+++ (+++ = >2.5 relative activity over WT GLA (SEQ ID NO: 5))”.

For B7, the “Relative Activity … at pH 4.3” value is recorded as “+++ (+++ = >2.5 relative activity over WT GLA (SEQ ID NO: 5))”.

As to B8, the “Relative Activity … at pH 4.3” value is “++ (++ = >1.5 to 2.5 relative activity over WT GLA (SEQ ID NO: 5))”.

With B9, the “Relative Activity … at pH 4.3” value was “+++ (+++ = >2.5 relative activity over WT GLA (SEQ ID NO: 5))”.

For B10, the “Relative Activity … at pH 4.3” value is reported as “++ (++ = >1.5 to 2.5 relative activity over WT GLA (SEQ ID NO: 5))”.

Turning to B11, the “Relative Activity … at pH 4.3” value is “+++ (+++ = >2.5 relative activity over WT GLA (SEQ ID NO: 5))”.

As for B12, the “Relative Activity … at pH 4.3” value is recorded as “++ (++ = >1.5 to 2.5 relative activity over WT GLA (SEQ ID NO: 5))”.

The next data set in a line: HTP-analysis of supernatants pretreated with base (MUGal hydrolysis). The format is biochemical. As to conditions: challenge at pH 7.0; activity of the variant/activity of WT GLA (SEQ ID NO: 5); yeast supernatant. The protocol:
as §1
GLA variants were challenged with basic (neutral) buffer to simulate the pHs that the variants encounter in the blood following their administration to a patient. First, 50 μL of yeast culture supernatant and 50 uL of McIlvaine buffer (pH 7.0-8.2) or 200 mM sodium bicarbonate (pH 9.1-9.7) were added to the wells of a 96-well round bottom plate. The plates were sealed and incubated at 37° C. for 1-18 h. For the assay, 10-50 μL of basic-pH-challenged sample was mixed with 0-40 μL, of McIlvaine buffer pH 4.8, 25 μL, of 1 M citrate buffer pH 4.3 and 25 μL, of 4 mM MUGal in McIlvaine buffer pH 4.8. The reactions were mixed briefly and incubated at 37° C. for 30-180 minutes, prior to quenching with 100 μL, of 1 M sodium carbonate. Hydrolysis was analyzed using a SpectraMax® M2 microplate reader monitoring fluorescence (Ex. 355 nm, Em. 448 nm).
With B1, the “Relative Activity of GLA Variants After Challenge at pH 7.0” value (shortened to “Relative Activity … at pH 7.0”) was “+ (+ = 0.5 to 1.5 relative activity over WT GLA (SEQ ID NO: 5))”.

Turning to B2, the “Relative Activity … at pH 7.0” value was “++ (++ = >1.5 to 2.5 relative activity over WT GLA (SEQ ID NO: 5))”.

As for B3, the “Relative Activity … at pH 7.0” value is “+ (+ = 0.5 to 1.5 relative activity over WT GLA (SEQ ID NO: 5))”.

As to B4, the “Relative Activity … at pH 7.0” value is “+ (+ = 0.5 to 1.5 relative activity over WT GLA (SEQ ID NO: 5))”.

Consider B5, for which the “Relative Activity … at pH 7.0” value was “+ (+ = 0.5 to 1.5 relative activity over WT GLA (SEQ ID NO: 5))”.

Regarding B6, the “Relative Activity … at pH 7.0” value was “++ (++ = >1.5 to 2.5 relative activity over WT GLA (SEQ ID NO: 5))”.

Take B7: the “Relative Activity … at pH 7.0” value is listed as “++ (++ = >1.5 to 2.5 relative activity over WT GLA (SEQ ID NO: 5))”.

Regarding B8, the “Relative Activity … at pH 7.0” value is given as “++ (++ = >1.5 to 2.5 relative activity over WT GLA (SEQ ID NO: 5))”.

Turning to B9, the “Relative Activity … at pH 7.0” value is given as “++ (++ = >1.5 to 2.5 relative activity over WT GLA (SEQ ID NO: 5))”.

As for B10, the “Relative Activity … at pH 7.0” value is reported as “+ (+ = 0.5 to 1.5 relative activity over WT GLA (SEQ ID NO: 5))”.

For B11, the “Relative Activity … at pH 7.0” value is recorded as “+++ (+++ = >2.5 relative activity over WT GLA (SEQ ID NO: 5))”.

For B12, the “Relative Activity … at pH 7.0” value is given as “+ (+ = 0.5 to 1.5 relative activity over WT GLA (SEQ ID NO: 5))”.

A short description of a further data set: HTP-analysis of yeast culture supernatants, no challenge (MUGal hydrolysis). It counts as biochemical. As to conditions: activity of the variant/activity of WT GLA (SEQ ID NO: 5), yeast supernatant. The protocol: as §1
GLA variant activity was determined by measuring the hydrolysis of 4-methylumbelliferyl α-D-galactopyranoside (MUGal). For this assay, 5-50 μL, of yeast culture supernatant produced as described above, was mixed with 0-45 μL, of McIlvaine Buffer (McIlvaine, J. Biol. Chem., 49:183-186 [1921]), pH 4.8 and 50 μL of 2 mM MUGal in 50 mM citrate, 200 mM KCl, pH 4.6 in a 96-well, black, opaque bottom plate. The reactions were mixed briefly and incubated at 37° C. for 30-180 minutes, prior to quenching with 100 μL, of 1 M sodium carbonate. Hydrolysis was analyzed using a SpectraMax® M2 microplate reader monitoring fluorescence (Ex. 355 nm, Em. 448 nm).
B1: the “Relative Activity of GLA Variants After No Challenge (NC)” value is “+ (+ = 0.5 to 1.5 relative activity over WT GLA (SEQ ID NO: 5))”.

For B2, the “Relative Activity of GLA Variants After No Challenge (NC)” value is “+ (+ = 0.5 to 1.5 relative activity over WT GLA (SEQ ID NO: 5))”.

With B3, the “Relative Activity of GLA Variants After No Challenge (NC)” value was “+ (+ = 0.5 to 1.5 relative activity over WT GLA (SEQ ID NO: 5))”.

B4: the “Relative Activity of GLA Variants After No Challenge (NC)” value was “+ (+ = 0.5 to 1.5 relative activity over WT GLA (SEQ ID NO: 5))”.

For B5, the “Relative Activity of GLA Variants After No Challenge (NC)” value is on record as “+ (+ = 0.5 to 1.5 relative activity over WT GLA (SEQ ID NO: 5))”.

For the molecule B6, the “Relative Activity of GLA Variants After No Challenge (NC)” value is recorded as “++ (++ = >1.5 to 2.5 relative activity over WT GLA (SEQ ID NO: 5))”.

Turning to B7, the “Relative Activity of GLA Variants After No Challenge (NC)” value is listed as “++ (++ = >1.5 to 2.5 relative activity over WT GLA (SEQ ID NO: 5))”.

For B8, the “Relative Activity of GLA Variants After No Challenge (NC)” value is “++ (++ = >1.5 to 2.5 relative activity over WT GLA (SEQ ID NO: 5))”.

For B9, the “Relative Activity of GLA Variants After No Challenge (NC)” value was “+ (+ = 0.5 to 1.5 relative activity over WT GLA (SEQ ID NO: 5))”.

For the molecule B10, the “Relative Activity of GLA Variants After No Challenge (NC)” value is “+ (+ = 0.5 to 1.5 relative activity over WT GLA (SEQ ID NO: 5))”.

On to B11, for which the “Relative Activity of GLA Variants After No Challenge (NC)” value is given as “++ (++ = >1.5 to 2.5 relative activity over WT GLA (SEQ ID NO: 5))”.

As for B12, the “Relative Activity of GLA Variants After No Challenge (NC)” value is “+ (+ = 0.5 to 1.5 relative activity over WT GLA (SEQ ID NO: 5))”.
